Reference: paper PMC3618186

Legend:
[1] = biological target: Cytoplasmic dynein 1 intermediate chain 2, isoform 2C, N-terminal fragment IC1-124 (UniProt Q62871); test: sedimentation equilibrium analytical ultracentrifugation (Beckman-Coulter XLI, absorbance optics); settings: 4 °C
[2] = biological target: dynactin p150^Glued coiled-coil 1B (CC1B), residues 381–530 (R. norvegicus) (UniProt P28023); test: SEC; equimolar IC-TcTex1-LC8 complex and p150Glued fragment (CC1, CC1A, CC1B), alone or in combination, analytical Superdex 200 10/300 GL; fractions checked by SDS-PAGE
[3] = biological target: dynactin p150^Glued coiled-coil 1 (CC1) (R. norvegicus) (UniProt P28023); test: as above
[4] = biological target: dynactin p150^Glued coiled-coil 1 (CC1) (R. norvegicus) (UniProt P28023); test: AUC; sedimentation equilibrium of the p150Glued fragments alone, 4°C, 1x PBS, 1 mM TCEP; monomer-dimer model (dimer to monomers)
[5] = biological target: p150Glued CC1 (Drosophila melanogaster) (UniProt P13496); test: ITC; settings: cited from earlier work
[6] = biological target: dynactin p150^Glued coiled-coil 1 (CC1) (R. norvegicus) (UniProt P28023); test: AUC; sedimentation equilibrium, stoichiometric CC1 + IC 1-124, 4°C, 250 mM NaCl; model CC1 dimer + 2 IC, constant in M^2
[7] = biological target: dynactin p150^Glued coiled-coil 1 (CC1) (R. norvegicus) (UniProt P28023); test: AUC; sedimentation equilibrium, CC1 + IC 1-124, 4°C, pH 7.0; model CC1 dimer + 2 IC, constant in M^2
[8] = biological target: dynactin p150^Glued coiled-coil 1 (CC1) (R. norvegicus) (UniProt P28023); test: AUC; sedimentation equilibrium, CC1 + IC 1-124, 4°C, pH 8.0; model CC1 dimer + 2 IC, constant in M^2
[9] = biological target: dynactin p150^Glued coiled-coil 1A (CC1A), residues 204–348 (R. norvegicus) (UniProt P28023); test: AUC; sedimentation equilibrium of admixtures of p150Glued fragment and IC 1-124, 4°C, 1x PBS, 1 mM TCEP; model p150 dimer + 2 IC -> dimer-IC2, constant in M^2; CC1A: 10 μM + 10 μM
[10] = biological target: dynactin p150^Glued coiled-coil 1B (CC1B), residues 381–530 (R. norvegicus) (UniProt P28023); test: as above
[11] = biological target: dynactin p150^Glued coiled-coil 1 (CC1) (R. norvegicus) (UniProt P28023); test: as above
[12] = biological target: dynactin p150^Glued coiled-coil 1 (CC1) (R. norvegicus) (UniProt P28023); test: AUC; sedimentation equilibrium, CC1 + IC 1-124, 4°C, pH 9.0; model CC1 dimer + 2 IC, constant in M^2
[13] = biological target: dynactin p150^Glued coiled-coil 1 (CC1) (R. norvegicus) (UniProt P28023); test: AUC; sedimentation equilibrium, stoichiometric CC1 + IC 1-124, 4°C, 100 mM NaCl; model CC1 dimer + 2 IC, constant in M^2
[14] = biological target: dynactin p150^Glued coiled-coil 1 (CC1) (R. norvegicus) (UniProt P28023); test: AUC; sedimentation equilibrium, stoichiometric CC1 + IC 1-124, 4°C, 1000 mM NaCl; model CC1 dimer + 2 IC, constant in M^2
[15] = biological target: dynactin p150^Glued coiled-coil 1 (CC1) (R. norvegicus) (UniProt P28023); test: AUC; sedimentation equilibrium, stoichiometric CC1 + IC 1-124, 4°C, 500 mM NaCl; model CC1 dimer + 2 IC, constant in M^2

Cytoplasmic dynein 1 intermediate chain 2, isoform 2C, N-terminal fragment IC1-124, sequence (Q62871 whole entry, the tested form may be a part, canonical isoform): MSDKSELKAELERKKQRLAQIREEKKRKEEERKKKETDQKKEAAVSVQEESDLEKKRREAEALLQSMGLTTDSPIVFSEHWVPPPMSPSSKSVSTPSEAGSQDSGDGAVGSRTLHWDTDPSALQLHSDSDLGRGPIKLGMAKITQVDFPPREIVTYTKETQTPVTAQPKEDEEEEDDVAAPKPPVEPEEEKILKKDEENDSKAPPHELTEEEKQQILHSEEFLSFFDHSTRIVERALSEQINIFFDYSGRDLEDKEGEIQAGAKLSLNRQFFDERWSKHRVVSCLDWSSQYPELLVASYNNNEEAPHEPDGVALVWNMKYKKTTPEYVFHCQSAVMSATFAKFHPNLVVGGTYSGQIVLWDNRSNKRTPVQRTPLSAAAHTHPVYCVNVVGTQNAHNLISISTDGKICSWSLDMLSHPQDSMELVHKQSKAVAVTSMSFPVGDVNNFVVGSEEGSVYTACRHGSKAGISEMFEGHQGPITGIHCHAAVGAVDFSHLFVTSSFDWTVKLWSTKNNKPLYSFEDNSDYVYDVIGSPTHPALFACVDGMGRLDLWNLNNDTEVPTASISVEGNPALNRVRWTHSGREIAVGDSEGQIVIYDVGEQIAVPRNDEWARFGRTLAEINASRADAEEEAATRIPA
p150Glued CC1 (Drosophila melanogaster), sequence (P13496 221-509): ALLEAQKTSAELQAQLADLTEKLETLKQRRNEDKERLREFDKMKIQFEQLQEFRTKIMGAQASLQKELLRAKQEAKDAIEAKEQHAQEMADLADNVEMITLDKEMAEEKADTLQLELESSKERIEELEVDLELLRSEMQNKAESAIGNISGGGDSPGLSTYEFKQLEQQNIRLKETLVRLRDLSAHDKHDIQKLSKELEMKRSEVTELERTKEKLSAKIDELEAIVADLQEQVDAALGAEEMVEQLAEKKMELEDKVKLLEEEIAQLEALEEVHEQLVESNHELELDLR
dynein intermediate chain, sequence (Q24246 whole entry): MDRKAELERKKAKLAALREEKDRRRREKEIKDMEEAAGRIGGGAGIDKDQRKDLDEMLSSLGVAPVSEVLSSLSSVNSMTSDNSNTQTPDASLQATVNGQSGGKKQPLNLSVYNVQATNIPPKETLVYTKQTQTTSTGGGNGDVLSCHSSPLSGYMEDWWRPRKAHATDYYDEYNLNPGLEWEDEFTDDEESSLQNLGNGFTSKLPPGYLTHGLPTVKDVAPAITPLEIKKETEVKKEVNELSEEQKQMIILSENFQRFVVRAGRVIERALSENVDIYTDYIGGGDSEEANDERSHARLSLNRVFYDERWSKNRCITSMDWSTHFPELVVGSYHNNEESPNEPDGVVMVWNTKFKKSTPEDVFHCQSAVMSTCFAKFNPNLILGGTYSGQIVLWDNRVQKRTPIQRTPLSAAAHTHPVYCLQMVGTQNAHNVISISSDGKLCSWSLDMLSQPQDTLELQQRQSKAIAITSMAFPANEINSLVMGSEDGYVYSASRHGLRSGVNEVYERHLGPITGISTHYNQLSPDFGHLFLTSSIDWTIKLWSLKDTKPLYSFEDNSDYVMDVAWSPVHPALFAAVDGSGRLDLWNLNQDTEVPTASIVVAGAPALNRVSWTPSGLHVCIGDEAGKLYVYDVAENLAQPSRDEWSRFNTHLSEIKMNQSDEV

Dynactin subunit 1 (p150Glued) CC1 fragment
dissociation constant ([1]; pH 7.0, not stated (pH series 6.0, 7.0, 8.0, 9.0; buffer substances not named)): ≤10^−13 M^2 | dissociation constant ([1]; pH 7.4, 1x PBS: 137 mM NaCl, 2.7 mM KCl, 1x PBS (4.3 mM Na2HPO4, 1.47 mM KH2PO4, pH 7.4)): <10^−15 M^2 | dissociation constant ([1]; pH 8.0, not stated (pH series 6.0, 7.0, 8.0, 9.0; buffer substances not named)): ≤10^−14 M^2 | dissociation constant ([1]; pH 9.0, not stated (pH series 6.0, 7.0, 8.0, 9.0; buffer substances not named)): ≤10^−12 M^2

IC2B^1–158-TcTex1-LC8 complex (from UniProt Q9Z336 1-113; P63170 1-89)
change in elution volume of the IC complex [2]: 1.26 mL | change in elution volume of the IC complex [3]: 2.22 mL

dynactin p150^Glued coiled-coil 1 (CC1) (from UniProt P28023 204-530) (domain or fragment)
Kd [4]: < 0.001 µM | stoichiometry N [4]: 2

dynein intermediate chain (from UniProt Q24246)
Kd [5]: 3.5 µM

dynein intermediate chain isoform 2C, residues 1–124 (domain or fragment)
overall dissociation constant, p150 dimer + 2 IC [6]: 1e-12 M^2 | overall dissociation constant, p150 dimer + 2 IC [7]: < 1e-13 M^2 | overall dissociation constant, p150 dimer + 2 IC [8]: < 1e-14 M^2 | overall dissociation constant, p150 dimer + 2 IC [9]: > 1e-10 M^2 | overall dissociation constant on the scale of Figure S4B (scale not told, presumably -log10) [10]: 12 | stoichiometry N (IC per CC1B dimer) [10]: 2 | overall dissociation constant, p150 dimer + 2 IC [11]: < 1e-15 M^2 | stoichiometry N (IC per CC1 dimer) [11]: 2 | overall dissociation constant, p150 dimer + 2 IC [12]: < 1e-12 M^2 | overall dissociation constant, p150 dimer + 2 IC [13]: > 1e-15 M^2 | overall dissociation constant, p150 dimer + 2 IC [14]: 1e-08 M^2 | overall dissociation constant, p150 dimer + 2 IC [15]: 1e-10 M^2
